In patent US20250339569A1 (3B PHARMACEUTICALS, published 2025):
Starred links: 1 amine or outer side, 2 acyl side, 3 side chain; linkers in the order of their positions; H or OH if unused. Positions of bridges follow the written chain, without caps; N, C: chain ends. Non-standard residues stand in square brackets, D forms with d. Primed or numbered codes have the meaning given here. No end group written: not given here. *: point of attachment. Af3(MCprAc) = 3-aminophenylalanine with 1-methylcyclopropane-1-carbonyl on the ring amine, CC1(C(=O)Nc2cccc(C[C@H](N[*:1])C(=O)[*:2])c2)CC1; Af3(HO-Succinyl) = 3-aminophenylalanine with succinyl (free acid) on the ring amine, O=C(CCC(=O)[*:3])Nc1cccc(C[C@H](N[*:1])C(=O)[*:2])c1; Af3(MSAc) = 3-aminophenylalanine with 2-methanesulfonylacetyl on the ring amine, CS(=O)(=O)CC(=O)Nc1cccc(C[C@H](N[*:1])C(=O)[*:2])c1; Af3(Iva) = 3-aminophenylalanine with isovaleryl on the ring amine, CC(C)CC(=O)Nc1cccc(C[C@H](N[*:1])C(=O)[*:2])c1; Af3(Prp) = 3-aminophenylalanine with propionyl on the ring amine, CCC(=O)Nc1cccc(C[C@H](N[*:1])C(=O)[*:2])c1; APAc″ = 2-(4-(amino)piperidin-1-yl)acetic acid, NC1CCN(CC(=O)*)CC1; DOTA = O=C(O)CN1CCN(CC(=O)O)CCN(CC(=O)*)CCN(CC(=O)O)CC1; PPAc = 4-carboxymethyl piperazine linker; mXylylene = c1cc(C[*:1])cc(C[*:2])c1; 3Amb = NCc1cccc(C(=O)O)c1; 4Amc = not defined here; Inp′ = not defined here; Cmp = not defined here; Dap = NC[C@H](N)C(=O)O

B1: 3BP-4178 (peptide)
peptide: [dP]PVYCE[dP]DWLTWSC
modifications: linker 5-14 via mXylylene; not fully specified (bridges)
notes: Bracket use differs from the other compounds; the outer cycle is read as closing pro1 with Cys14
B2: 3BP-4253 (peptide)
peptide: {DOTA}-DCE[dP]DWLTW[Dap]C-NH2
modifications: lactam 10-1; linker 2-11 via mXylylene
SMILES: CC(C)C[C@@H]1NC(=O)[C@H](Cc2c[nH]c3ccccc23)NC(=O)[C@H](CC(=O)O)NC(=O)[C@H]2CCCN2C(=O)[C@H](CCC(=O)O)NC(=O)[C@@H]2CSCc3cccc(c3)CSC[C@@H](C(N)=O)NC(=O)[C@H](CNC(=O)C[C@H](NC(=O)CN3CCN(CC(=O)O)CCN(CC(=O)O)CCN(CC(=O)O)CC3)C(=O)N2)NC(=O)[C@H](Cc2c[nH]c3ccccc23)NC(=O)[C@H]([C@@H](C)O)NC1=O
B3: 3BP-4260 (peptide)
peptide: {DOTA-3Amb}-DCE[dP]DWLTW[Dap]C-NH2
modifications: lactam 10-1; linker 2-11 via mXylylene
SMILES: CC(C)C[C@@H]1NC(=O)[C@H](Cc2c[nH]c3ccccc23)NC(=O)[C@H](CC(=O)O)NC(=O)[C@H]2CCCN2C(=O)[C@H](CCC(=O)O)NC(=O)[C@@H]2CSCc3cccc(c3)CSC[C@@H](C(N)=O)NC(=O)[C@H](CNC(=O)C[C@H](NC(=O)c3cccc(CNC(=O)CN4CCN(CC(=O)O)CCN(CC(=O)O)CCN(CC(=O)O)CC4)c3)C(=O)N2)NC(=O)[C@H](Cc2c[nH]c3ccccc23)NC(=O)[C@H]([C@@H](C)O)NC1=O

target: human carbonic anhydrase 9 (CAIX) (human, UniProt Q16790 38-459); assay: FACS competition on HT-29 cells, competitor tracer 3BP-2776; category A = pIC50 >8.0
Method: CAIX-expressing human HT-29 colorectal cancer cells (DSMZ, RRID: CVCL_0320) were cultured in McCoys's 5A modified medium (Biochrom, #F1015) including 10% fetal calf serum (FCS), 2 mM L-glutamine, 100 U/ml penicillin and 100 μg/mL streptomycin. Cells were detached with Accutase (Biolegend, #423201) and washed in FACS buffer (PBS including 1% FCS). Cells were diluted in FACS buffer to a final concentration of 500.000 cells per ml. 200 μL of the cell suspension were transferred to a u-shaped non-binding 96-well plate (Greiner) and cells were washed in ice-cold FACS buffer.
When biotinylated compounds were used an additional incubation step with 1 μg/mL APC-Streptavidin (Miltenyi; #130-106-791) in 50 μL FACS buffer for 30 minutes on ice was performed.
Cells were washed twice with ice-cold FACS buffer and analyzed in an Attune NxT flow cytometer (Thermo Fisher). Median fluorescence intensities (MFI) of the APC/Cy5-channel were calculated by Attune NxT software.

pIC50, > 8 pic50:
{DOTA-APAc″}-VYCE[dP]D[Af3(Prp)]LTWSC-NH2 (linker 3-12 via mXylylene) [3BP-4235], {DOTA-4Amc}-DCE[dP]DWLTW[Dap]C-NH2 (lactam 10-1; linker 2-11 via mXylylene; reading uncertain) [3BP-4258], {DOTA-APAc″}-VYCE[dP]D[Af3(HO-Succinyl)]LTWSC-NH2 (linker 3-12 via mXylylene) [3BP-4237], {DOTA-APAc″}-VYCE[dP]D[Af3(Iva)]LTWSC-NH2 (linker 3-12 via mXylylene) [3BP-4236], {DOTA-Inp′}-DCE[dP]DWLTW[Dap]C-NH2 (lactam 10-1; linker 2-11 via mXylylene) [3BP-4256], {DOTA-Cmp}-DCE[dP]DWLTW[Dap]C-NH2 (lactam 10-1; linker 2-11 via mXylylene; reading uncertain) [3BP-4259], {DOTA-PPAc}-DCE[dP]DWLTW[Dap]C-NH2 (lactam 10-1; linker 2-11 via mXylylene) [3BP-4255], B1, {DOTA-APAc″}-VYCE[dP]D[Af3(MCprAc)]LTWSC-NH2 (linker 3-12 via mXylylene) [3BP-4234], B2, B3, {DOTA-APAc″}-VYCE[dP]D[Af3(MSAc)]LTWSC-NH2 (linker 3-12 via mXylylene) [3BP-4242], {DOTA-APAc″}-DCE[dP]DWLTW[Dap]C-NH2 (lactam 10-1; linker 2-11 via mXylylene) [3BP-4254]
